Assay results from article PMC6007841 (Journal of medicinal chemistry, 2018).
Bridge positions count the residues as written; N and C are the ends. Ends that are not written are not given here.

How the values were obtained:
Assay in all cases: cell-based or functional assay
[1] = target: human melanocortin 1 receptor (human, UniProt Q01726 1-317)
[2] = target: mouse melanocortin 1 receptor (mouse, UniProt Q01727 1-315)
[3] = target: mouse melanocortin 3 receptor (mouse, UniProt P33033 1-323)
[4] = target: mouse melanocortin 5 receptor (mouse, UniProt P41149 1-325)
Sequence of mouse melanocortin 5 receptor (P41149 whole entry): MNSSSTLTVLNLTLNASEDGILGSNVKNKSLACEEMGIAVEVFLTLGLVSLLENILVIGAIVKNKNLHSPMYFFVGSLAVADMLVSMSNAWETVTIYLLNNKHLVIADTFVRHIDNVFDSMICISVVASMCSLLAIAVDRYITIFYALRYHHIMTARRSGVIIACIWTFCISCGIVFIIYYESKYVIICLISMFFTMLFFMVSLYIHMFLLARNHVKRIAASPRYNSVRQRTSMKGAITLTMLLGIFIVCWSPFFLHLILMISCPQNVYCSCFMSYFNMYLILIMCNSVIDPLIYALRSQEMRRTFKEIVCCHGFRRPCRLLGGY

[5] = target: human melanocortin 3 receptor (human, UniProt P41968 1-323)
Sequence of human melanocortin 3 receptor (P41968 whole entry): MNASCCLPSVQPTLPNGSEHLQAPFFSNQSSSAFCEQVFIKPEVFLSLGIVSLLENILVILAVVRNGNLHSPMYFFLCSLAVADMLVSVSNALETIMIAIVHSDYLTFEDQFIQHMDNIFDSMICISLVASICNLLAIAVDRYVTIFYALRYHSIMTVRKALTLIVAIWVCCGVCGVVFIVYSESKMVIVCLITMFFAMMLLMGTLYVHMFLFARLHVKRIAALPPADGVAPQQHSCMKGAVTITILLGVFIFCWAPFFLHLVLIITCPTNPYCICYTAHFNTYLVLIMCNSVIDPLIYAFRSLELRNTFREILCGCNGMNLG

[6] = target: human melanocortin 4 receptor (human, UniProt P32245 1-332)
Sequence of human melanocortin 4 receptor (P32245 whole entry): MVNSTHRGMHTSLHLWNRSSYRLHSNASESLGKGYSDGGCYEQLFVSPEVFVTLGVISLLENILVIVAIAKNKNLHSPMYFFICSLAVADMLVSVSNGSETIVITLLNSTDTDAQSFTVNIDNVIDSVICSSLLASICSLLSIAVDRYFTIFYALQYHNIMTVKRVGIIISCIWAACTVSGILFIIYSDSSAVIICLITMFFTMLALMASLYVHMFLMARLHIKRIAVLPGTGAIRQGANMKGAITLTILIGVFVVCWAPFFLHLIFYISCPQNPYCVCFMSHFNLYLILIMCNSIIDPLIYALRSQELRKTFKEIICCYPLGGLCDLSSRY

Sequence of human melanocortin 1 receptor (Q01726 whole entry): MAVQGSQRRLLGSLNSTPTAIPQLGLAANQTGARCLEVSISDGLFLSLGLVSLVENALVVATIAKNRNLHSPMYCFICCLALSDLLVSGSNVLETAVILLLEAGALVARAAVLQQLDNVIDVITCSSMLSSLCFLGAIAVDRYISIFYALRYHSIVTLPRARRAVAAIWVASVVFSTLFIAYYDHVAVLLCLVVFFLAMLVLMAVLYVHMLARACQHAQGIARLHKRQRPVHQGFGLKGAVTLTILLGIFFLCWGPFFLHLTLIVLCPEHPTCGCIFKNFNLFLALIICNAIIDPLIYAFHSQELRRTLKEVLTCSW
Sequence of mouse melanocortin 1 receptor (Q01727 whole entry): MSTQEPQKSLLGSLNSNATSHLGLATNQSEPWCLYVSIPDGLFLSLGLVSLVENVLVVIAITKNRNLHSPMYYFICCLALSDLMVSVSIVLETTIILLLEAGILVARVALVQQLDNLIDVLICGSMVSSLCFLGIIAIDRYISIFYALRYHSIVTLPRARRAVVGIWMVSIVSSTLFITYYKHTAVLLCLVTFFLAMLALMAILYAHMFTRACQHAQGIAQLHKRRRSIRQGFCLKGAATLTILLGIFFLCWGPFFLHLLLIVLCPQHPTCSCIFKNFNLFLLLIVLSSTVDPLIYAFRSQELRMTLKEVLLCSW
Sequence of mouse melanocortin 3 receptor (P33033 whole entry): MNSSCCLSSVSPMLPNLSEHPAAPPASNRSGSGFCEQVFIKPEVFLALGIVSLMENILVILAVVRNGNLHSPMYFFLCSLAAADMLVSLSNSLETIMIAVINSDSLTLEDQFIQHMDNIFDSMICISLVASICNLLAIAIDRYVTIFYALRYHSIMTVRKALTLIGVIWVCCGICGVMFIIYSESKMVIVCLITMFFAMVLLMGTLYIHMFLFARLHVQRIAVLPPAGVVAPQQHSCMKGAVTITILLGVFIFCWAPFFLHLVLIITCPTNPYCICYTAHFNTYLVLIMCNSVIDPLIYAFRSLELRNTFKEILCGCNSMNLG

| Binder | cAMP agonist EC50 (AlphaScreen cAMP assay, HEK293 cells expressing the receptor) [1] [µM] | cAMP agonist EC50 (AlphaScreen cAMP assay, HEK293 cells expressing the receptor) [2] [µM] | cAMP agonist EC50 (AlphaScreen cAMP assay, HEK293 cells expressing the receptor) [3] [µM] | cAMP agonist EC50 (AlphaScreen cAMP assay, HEK293 cells expressing the receptor) [4] [µM] | cAMP agonist EC50 (AlphaScreen cAMP assay, HEK293 cells expressing the receptor) [5] [µM] | cAMP agonist EC50 (AlphaScreen cAMP assay, HEK293 cells expressing the receptor) [6] [µM] |
| --- | --- | --- | --- | --- | --- | --- |
| DHYNCVSSGGQCLYSACPIFTKIQGTCYRGKAKCCK (peptide, UniProt P60022 33-68, looked up, oxidized form (disulfide bonds formed)) [human β-defensin 1, oxidized form] | 7.4 |  |  |  |  |  |
| DQYKCLQHGGFCLRSSCPSNTKLQGTCKPDKPNCCKS (peptide, UniProt P56386 33-69, looked up, disulfide 12-27, 17-35, 5-34) [mouse β-defensin 1, oxidized form] | 1.4 | 11 | 14 | 5.2 | 22 | 3.8 |
| GIINTLQKYYCRVRGGRCAVLSCLPKEEQIGKCSTRGRKCCRRKK (peptide, UniProt P81534 23-67, looked up, oxidized, folded form (disulfide bonds formed)) [human β-defensin 3, oxidized, folded form] | 0.4 | 2.2 |  | 4.7 |  | 2.6 |
